Data on 34 molecules can be found in USRE47150 (Bayer, dated 2018).

To fix the notation:
B1: 4B7 HC N32D+D62R+H103D+H107M+Y112D/LC S32R (Fab, V domains shown)
VH: QVQLQQSGPGLVKPSQTLSLTCAISGDSVSSDSAAWSWIRQSPGRGLEWLGIIYKRSKWYNRYAVSVKSRITINPDTSKNQFSLQLNSVTPEDTAVYYCARWDSDKMWGFDDWGQGTLVTVSS
VL: DIVMTQSPLSLPVTPGEPASISCRSSQSLVFRDGNTYLNWYLQKPGQSPQLLIYKGSNRASGVPDRFSGSGSGTDFTLKISRVEAEDVGVYYCQQYDSYPLTFGQGTKVEIKR
B2: 4B7 HC N32D+D62R+H107M+Y112D/LC S32R+N35T (Fab, V domains shown)
VH: B1 VH with D103H
VL: B1 VL with N35T
B3: 4B7 HC N32D+D62R+H107M+Y112D/LC F31I+S32R+D33F+N35I+D97T (Fab, V domains shown)
VH: B1 VH with D103H
VL: B1 VL with F31I, D33F, N35I, D97T
B4: 4B7 HC N32D+D62R+Y112D/LC M4I+S32R+D33F+N35I+D97T (Fab, V domains shown)
VH: B1 VH with D103H, M107H
VL: B1 VL with M4I, D33F, N35I, D97T
B5: 4B7 HC N32D+D62R+H107M+Y112D/LC F31M+S32R+D33R+N35T (Fab, V domains shown)
VH: B1 VH with D103H
VL: B1 VL with F31M, D33R, N35T
B6: 4B7 HC N32D+D62R+Y112D/LC D33R+N35I (Fab, V domains shown)
VH: B1 VH with D103H, M107H
VL: B1 VL with R32S, D33R, N35I
B7: 4B7 HC N32D+D62R+H103D+H107M+Y112D/LC S32R+N35T (Fab, V domains shown)
VH: B1 VH
VL: B1 VL with N35T
B8: 4B7 HC N32D+D62R+H107M+Y112D/LC F31M+S32L+D33R+N35I+D97T (Fab, V domains shown)
VH: B1 VH with D103H
VL: B1 VL with F31M, R32L, D33R, N35I, D97T
B9: 4B7 HC N32D+D62R+H107M+Y112D/LC D33R (Fab, V domains shown)
VH: B1 VH with D103H
VL: B1 VL with R32S, D33R
B10: 4B7 HC N32D+D62R+H107M+Y112D/LC D33F+N35T+Y37F (Fab, V domains shown)
VH: B1 VH with D103H
VL: B1 VL with R32S, D33F, N35T, Y37F
B11: 4B7 HC N32D+D62R+H107M+Y112D/LC D33R+N35T (Fab, V domains shown)
VH: B1 VH with D103H
VL: B1 VL with R32S, D33R, N35T
B12: 4B7 HC N32D+D62R+H107M+Y112D/LC F31I+S32R+N35I+D97T (Fab, V domains shown)
VH: B1 VH with D103H
VL: B1 VL with F31I, N35I, D97T
B13: 4B7 HC N32D+D62R+H107M+Y112D/LC F31I+S32R+D33F+N35T (Fab, V domains shown)
VH: B1 VH with D103H
VL: B1 VL with F31I, D33F, N35T
B14: 4B7 HC N32D+D62R+H107M+Y112D/LC F31M+S32R+D33F+N35I (Fab, V domains shown)
VH: B1 VH with D103H
VL: B1 VL with F31M, D33F, N35I
B15: 4B7 HC N32D+D62R+Y112D/LC D33F+N35I+D97T (Fab, V domains shown)
VH: B1 VH with D103H, M107H
VL: B1 VL with R32S, D33F, N35I, D97T
B16: 4B7 HC N32D+D62R+Y112D/LC F31H+S32R+D33F+N35I+D97T (Fab, V domains shown)
VH: B1 VH with D103H, M107H
VL: B1 VL with F31H, D33F, N35I, D97T
B17: 4B7 HC N32D+D62R+H107M/LC S32R+D33R+N35I (Fab, V domains shown)
VH: B1 VH with D103H, D112Y
VL: B1 VL with D33R, N35I
B18: 4B7 HC N32D+D62R+H107M+Y112D/LC F31M+D33R (Fab, V domains shown)
VH: B1 VH with D103H
VL: B1 VL with F31M, R32S, D33R
B19: 4B7 HC N32D+D62R+H107M+Y112D/LC F31I+D33R+N35I (Fab, V domains shown)
VH: B1 VH with D103H
VL: B1 VL with F31I, R32S, D33R, N35I
B20: 4B7 HC N32D+D62R+H107M+Y112D/LC F31I+D33R (Fab, V domains shown)
VH: B1 VH with D103H
VL: B1 VL with F31I, R32S, D33R
B21: 4B7 HC N32D+D62R+H107M+Y112D/LC F31M+D33F+N35I (Fab, V domains shown)
VH: B1 VH with D103H
VL: B1 VL with F31M, R32S, D33F, N35I
B22: 4B7 HC N32D+D62R+H107M+Y112D/LC F31M+D33F+N35T (Fab, V domains shown)
VH: B1 VH with D103H
VL: B1 VL with F31M, R32S, D33F, N35T
B23: 4B7 HC N32D+D62R+H107M+Y112D/LC F31M+S32R+D33F+D97T (Fab, V domains shown)
VH: B1 VH with D103H
VL: B1 VL with F31M, D33F, D97T
B24: 4B7 HC N32D+D62R+H107M+Y112D/LC F31M+D33R+N35I (Fab, V domains shown)
VH: B1 VH with D103H
VL: B1 VL with F31M, R32S, D33R, N35I
B25: 4B7 HC N32D+D62R+H107M+Y112D/LC D33R+N35I+D97T (Fab, V domains shown)
VH: B1 VH with D103H
VL: B1 VL with R32S, D33R, N35I, D97T
B26: 4B7 HC N32D+D62R+H107M+Y112D/LC S32R+D33F+N35T (Fab, V domains shown)
VH: B1 VH with D103H
VL: B1 VL with D33F, N35T
B27: 4B7 HC N32D+D62R+H107M+Y112D/LC S32R+N35T+D97T (Fab, V domains shown)
VH: B1 VH with D103H
VL: B1 VL with N35T, D97T
B28: 4B7 HC N32D+D62R+Y112D/LC F31Y+S32R+D33F+N35I+D97T (Fab, V domains shown)
VH: B1 VH with D103H, M107H
VL: B1 VL with F31Y, D33F, N35I, D97T
B29: 4B7 HC N32D+D62R+Y112D/LC F31M+S32R+D33R+N35I (Fab, V domains shown)
VH: B1 VH with D103H, M107H
VL: B1 VL with F31M, D33R, N35I
B30: 4B7 HC N32D+D62R+H107M+Y112D/LC F31M+S32R+D33R+N35I+D97T (Fab, V domains shown)
VH: B1 VH with D103H
VL: B1 VL with F31M, D33R, N35I, D97T
B31: 4B7 HC N32D+D62R+Y112D/LC F31I+D33F+N35I+D97T (Fab, V domains shown)
VH: B1 VH with D103H, M107H
VL: B1 VL with F31I, R32S, D33F, N35I, D97T
B32: 4B7 HC N32D+D62R+H107M+Y112D/LC F31M+S32R+D33R (Fab, V domains shown)
VH: B1 VH with D103H
VL: B1 VL with F31M, D33R
B33: 4B7 HC N32D+D62R+H103D/LC F31I+D33R (Fab, V domains shown)
VH: B1 VH with M107H, D112Y
VL: B1 VL with F31I, R32S, D33R
B34: 4B7 HC N32D+D62R+H107M+Y112D/LC F31I+N35I (Fab, V domains shown)
VH: B1 VH with D103H
VL: B1 VL with F31I, R32S, N35I

Numbering of substitutions follows the chain as printed. Numbers in names are those of the source.

The first experiment addresses T1, mouse tissue factor pathway inhibitor (TFPI) (mouse, UniProt O54819 29-289, limits assumed).
T1 construct: bought; also called mTFPI; murine TFPI
T1 sequence (looked up): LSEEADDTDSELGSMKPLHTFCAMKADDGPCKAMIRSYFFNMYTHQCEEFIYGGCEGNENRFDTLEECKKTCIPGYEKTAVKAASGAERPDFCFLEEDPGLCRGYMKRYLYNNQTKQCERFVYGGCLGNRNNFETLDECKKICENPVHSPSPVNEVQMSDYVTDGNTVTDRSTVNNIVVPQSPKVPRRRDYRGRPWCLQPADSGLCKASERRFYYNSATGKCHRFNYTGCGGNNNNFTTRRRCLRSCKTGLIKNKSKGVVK
The experiment can be described thus: competitive ELISA.
On to B1, for which the variant/HC_D62R was determined as 16 ratio.

B2: the variant/HC_D62R came to 29.3 ratio.

Consider B3, for which the variant/HC_D62R came out at 20.6 ratio.

The molecule B4 displayed a variant/HC_D62R of 12 ratio.

Take B5: the variant/HC_D62R amounted to 18.7 ratio.

In the case of B6, the variant/HC_D62R worked out at 19.5 ratio.

For B7, the variant/HC_D62R came to 18.4 ratio.

For the molecule B8, the variant/HC_D62R was 26.7 ratio.

B9 showed a variant/HC_D62R of 20.3 ratio.

For B10, the variant/HC_D62R stood at 57.5 ratio.

On to B11, for which the variant/HC_D62R was found to be 29.3 ratio.

Consider B12, for which the variant/HC_D62R stood at 8.7 ratio.

For the molecule B13, the variant/HC_D62R came out at 19.7 ratio.

For B14, the variant/HC_D62R is 32.3 ratio.

B15 had a variant/HC_D62R of 15.9 ratio.

B16: the variant/HC_D62R was found to be 15.2 ratio.

Take B17: the variant/HC_D62R was found to be 16.1 ratio.

On to B18, for which the variant/HC_D62R was 24.6 ratio.

In turn, B19 yielded a variant/HC_D62R of 43 ratio.

B20 showed a variant/HC_D62R of 27.9 ratio.

B21 registered a variant/HC_D62R of 46.8 ratio.

In turn, B22 registered a variant/HC_D62R of 34.3 ratio.

For the molecule B23, the variant/HC_D62R was 16.5 ratio.

B24 came in with a variant/HC_D62R of 23 ratio.

Turning to B25, the variant/HC_D62R was determined as 28.1 ratio.

In turn, B26 yielded a variant/HC_D62R of 44.1 ratio.

Regarding B27, the variant/HC_D62R came out at 15.8 ratio.

As to B28, the variant/HC_D62R is 39.7 ratio.

The molecule B29 had a variant/HC_D62R of 11.2 ratio.

B30 yielded a variant/HC_D62R of 9.6 ratio.

B31 displayed a variant/HC_D62R of 11.9 ratio.

For B32, the variant/HC_D62R is 13.9 ratio.

In turn, B33 showed a variant/HC_D62R of 14.6 ratio.

B34 gave a variant/HC_D62R of 30 ratio.

In a further experiment the target is T2, human tissue factor pathway inhibitor (TFPI) (human, UniProt P10646 29-304, limits assumed).
T2 construct: bought; also called hTFPI; human TFPI
T2 sequence (looked up): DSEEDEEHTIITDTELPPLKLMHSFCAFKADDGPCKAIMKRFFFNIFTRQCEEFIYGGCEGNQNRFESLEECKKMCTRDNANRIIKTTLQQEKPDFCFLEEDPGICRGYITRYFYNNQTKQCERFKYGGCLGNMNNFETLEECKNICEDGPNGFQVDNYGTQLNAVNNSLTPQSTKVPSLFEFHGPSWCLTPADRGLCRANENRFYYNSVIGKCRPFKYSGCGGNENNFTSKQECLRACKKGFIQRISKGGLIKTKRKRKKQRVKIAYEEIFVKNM
The experiment can be described thus: competitive ELISA.
B1 came in with a variant/HC_D62R of 17.7 ratio.

In turn, B2 displayed a variant/HC_D62R of 25.3 ratio.

Consider B3, for which the variant/HC_D62R turned out to be 28.7 ratio.

B4 registered a variant/HC_D62R of 19.3 ratio.

In the case of B5, the variant/HC_D62R is 17 ratio.

B6 returned a variant/HC_D62R of 22.9 ratio.

The molecule B7 returned a variant/HC_D62R of 14 ratio.

In turn, B8 displayed a variant/HC_D62R of 32.2 ratio.

B9 had a variant/HC_D62R of 25.3 ratio.

On to B10, for which the variant/HC_D62R was determined as 35.7 ratio.

Molecule B11 returned a variant/HC_D62R of 28.2 ratio.

In turn, B12 showed a variant/HC_D62R of 18.2 ratio.

B13 gave a variant/HC_D62R of 29.5 ratio.

Regarding B14, the variant/HC_D62R came to 27 ratio.

Take B15: the variant/HC_D62R was 25.5 ratio.

On to B16, for which the variant/HC_D62R came out at 22.1 ratio.

B17 gave a variant/HC_D62R of 12.9 ratio.

As to B18, the variant/HC_D62R came out at 26.9 ratio.

As for B19, the variant/HC_D62R came to 29.8 ratio.

As for B20, the variant/HC_D62R came out at 30.1 ratio.

The molecule B21 displayed a variant/HC_D62R of 28.4 ratio.

As to B22, the variant/HC_D62R was 29.9 ratio.

For B23, the variant/HC_D62R turned out to be 21.9 ratio.

For the molecule B24, the variant/HC_D62R is 21.3 ratio.

B25 had a variant/HC_D62R of 29.1 ratio.

B26 showed a variant/HC_D62R of 29.2 ratio.

For B27, the variant/HC_D62R came to 27.7 ratio.

Molecule B28 registered a variant/HC_D62R of 27.9 ratio.

As to B29, the variant/HC_D62R is 15.8 ratio.

B30 showed a variant/HC_D62R of 16.9 ratio.

The molecule B31 showed a variant/HC_D62R of 23.3 ratio.

On to B32, for which the variant/HC_D62R turned out to be 18.6 ratio.

In the case of B33, the variant/HC_D62R stood at 13.6 ratio.

On to B34, for which the variant/HC_D62R came to 28.8 ratio.
